According to patent US6998383B2, “Inhibitors of receptor activator of NF-κB and uses thereof” (Research Development Corporation, priority 2001, dated 2006):

How the values were obtained:
[1] = biological target: T1, TRAF2 binding to the cytoplasmic domain of RANK (Homo sapiens, UniProt Q12933); assay: Competitive GST-pull down assay, TRAF2 binding to RANK cytoplasmic domain; details: 100 μM peptide, FLAG-TRAF2 293 cell extract (FIG. 4C)
T1 construct: expressed in transfected cells; host or cells: human 293 cells (TRAF lysate); The GST-RANK fusion was purified as previously described
T1 sequence (Q12933 1-501): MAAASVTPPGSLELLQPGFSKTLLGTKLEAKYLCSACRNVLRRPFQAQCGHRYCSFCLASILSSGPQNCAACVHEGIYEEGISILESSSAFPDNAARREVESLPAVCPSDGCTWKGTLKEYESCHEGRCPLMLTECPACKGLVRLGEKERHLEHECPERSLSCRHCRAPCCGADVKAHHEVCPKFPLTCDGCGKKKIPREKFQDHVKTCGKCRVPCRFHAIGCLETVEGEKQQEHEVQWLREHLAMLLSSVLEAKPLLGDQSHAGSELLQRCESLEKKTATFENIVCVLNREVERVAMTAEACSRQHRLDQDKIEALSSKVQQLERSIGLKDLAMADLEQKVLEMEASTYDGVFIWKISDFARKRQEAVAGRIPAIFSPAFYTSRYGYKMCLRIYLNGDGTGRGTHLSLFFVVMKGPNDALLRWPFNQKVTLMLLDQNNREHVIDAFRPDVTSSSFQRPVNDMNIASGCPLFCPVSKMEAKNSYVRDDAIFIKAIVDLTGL
Method: (§1) Cellular extracts from human 293 cells transfected with either FLAG-TRAF2, -TRAF5, or -TRAF6 were mixed with GST or GST-RANKed in the absence or presence of 100 μM of the indicated peptides. A GST-pull down assay was performed as described below. The bound TRAFs were visualized by immunoblotting with anti-FLAG antibodies.
(§2) Equivalent amounts of GST or GST-RANK cytoplasmic domain (GST-RANKed) fusion protein attached to 20 μl of glutathione agarose beads were mixed with lysates (50 μg) from 293 cells programmed to express the epitope-tagged TRAF protein and the indicated peptides in binding buffer (20 mM TRIS, pH 8, 150 mM NaCl, 1 mM DTT, 2 mM EDTA, and 0.1% NP-40) and allowed to rotate for 1 h at 4° C. The beads were collected by centrifugation, washed three times in binding buffer, and then washed once in low-salt buffer (20 mM TRIS, pH 8, 50 mM NaCl, and 1 mM DTT). Bound proteins were eluted with addition of SDS-sample buffer and boiled. The eluted proteins were subjected to 7.5% SDS-PAGE and western blot analysis was performed with anti-FLAG antibodies.
(§3) The cytoplasmic domain of RANK interacts with many TRAF molecules, including TRAF1, 2, 3, 5, and 6 (7-9, 11, 12). While TRAF1, 2, 3, and 5 interact with the c-terminal tail of receptor activator of NF-κB, TRAF6 interacts with a membrane proximal region of the cytoplasmic domain of the receptor activator of NF-κB. […]

[2] = biological target: T2, TRAF6 binding to the RANK cytoplasmic domain (Mus musculus, UniProt P70196); assay: Competitive GST-pull down assay, TRAF6 binding to RANK cytoplasmic domain; details: 100 μM peptide, FLAG-TRAF6 293 cell extract, GST-RANK cytoplasmic domain (FIG. 4C)
T2 construct: expressed in transfected cells; host or cells: human 293 cells (TRAF lysate); The GST-RANK fusion was purified as previously described
T2 sequence (P70196 1-530): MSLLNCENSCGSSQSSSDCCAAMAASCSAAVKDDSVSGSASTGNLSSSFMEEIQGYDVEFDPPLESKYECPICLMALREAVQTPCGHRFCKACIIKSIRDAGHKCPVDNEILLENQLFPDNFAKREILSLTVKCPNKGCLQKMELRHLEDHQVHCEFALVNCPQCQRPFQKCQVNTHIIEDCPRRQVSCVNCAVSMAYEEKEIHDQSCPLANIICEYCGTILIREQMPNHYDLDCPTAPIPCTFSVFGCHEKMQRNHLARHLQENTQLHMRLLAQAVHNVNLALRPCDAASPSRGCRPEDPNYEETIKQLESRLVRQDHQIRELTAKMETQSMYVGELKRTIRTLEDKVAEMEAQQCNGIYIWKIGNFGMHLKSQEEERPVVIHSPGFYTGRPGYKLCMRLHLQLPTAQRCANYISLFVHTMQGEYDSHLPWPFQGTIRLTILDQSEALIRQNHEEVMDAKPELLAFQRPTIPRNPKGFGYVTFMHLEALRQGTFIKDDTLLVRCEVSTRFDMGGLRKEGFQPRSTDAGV
Method: as §1, §2, §3

[3] = test system: bone marrow-derived mouse monocytes; assay: RANKL and M-CSF-mediated osteoclast differentiation in bone marrow-derived mouse monocytes (TRAP staining); assay type: cell-based; details: M-CSF 10 ng/ml and RANKL 30 ng/ml (FIGS. 3A, 3B)
Method: After 6-7 days, the cells were fixed and stained for TRAP. The numbers of multi-nucleated, TRAP positive osteoclasts were counted.
Mouse-derived monocytes were plated in 48-well plates and costimulated as in FIG. 3A with murine M-CSF (10 ng/ml) and RANKL (30 ng/ml) in the absence (left panel) or presence of the indicated peptides. After 6-7 days, the cells were fixed and stained for TRAP. A representative field from each well was taken at a magnification of 10×.
(§4) Primary bone marrow monocytes (BM) or RAW264.7 cells were cultured in 48-well dishes at a density of 1×10^5 cells/well or 2×10^3 cells/well, and then treated with the indicated factors at the beginning of the culture and during a medium change on day 3. Osteoclast formation was assessed by counting the total number of multi-nucleated (>3 nuclei), TRAP-positive cells present per well between day 7 and 10 (BM) or on day 5 (RAW264.7) (30).
To further support the results obtained from the RAW264.7 cell line, the ability of these peptides to inhibit RANKL-mediated osteoclast differentiation in primary mouse-derived monocytes was tested. Costimulation of bone marrow-derived monocytes with RANKL and M-CSF cause osteoclast differentiation after 7-10 days, as determined by staining multi-nucleated, TRAP positive osteoclasts (30). Similar to the results with RAW264.7 cells, both L-T6DP-1 and L-T6DP-2 inhibited the development of TRAP positive osteoclast in a dose-dependent manner and L-T6DP-1 was much more efficient (FIGS. 3A and 3B).

RAW264.7 cells = assay: RANKL-mediated osteoclast differentiation in RAW264.7 cells (TRAP staining); assay type: cell-based, mouse; details: RANKL, increasing amounts of peptide, 4-5 days (FIG. 2C)
Method: RAW264.7 cells were plated in 12-well plates and stimulated with RANKL (30 ng/ml) for 4 days. Cells were stained for TRAP essentially as described below. Photographs were taken using a 10× objective lens.
RAW cells were plated as described in FIG. 2A and treated with RANKL in the presence of 1, 30, or 100 μM of peptides as indicated. On day 4 cells were stained and evaluated as in FIG. 2A.
RAW264.7 cells were plated in 48-well plates in triplicate and treated with RANKL in the presence of increasing amounts of the indicated peptides. After 4-5 days, the cells were stained for TRAP and the total numbers of osteoclasts were counted as described below.
as §4
The mouse macrophage cell line RAW264.7 express the receptor activator of NF-κB on their cell surface and when stimulated with the receptor activator of NF-κB ligand differentiate into multi-nucleated, tartrate resistant acid phosphatase (TRAP) positive osteoclasts after 4-5 days (FIG. 2A). To determine whether L-T6DP-1 could inhibit RANKL-mediated osteoclast differentiation, RAW264.7 cells were co-cultured with increasing concentrations of either L-T6DP-1. or T6DP-1 and 30 ng/ml RANKL for 4 days.

[4] = biological target: T3, TRAF5 binding to the cytoplasmic domain of RANK (Mus musculus, UniProt P70191); assay: Competitive GST-pull down assay, TRAF5 binding to RANK cytoplasmic domain; details: 100 μM peptide, FLAG-TRAF5 293 cell extract (FIG. 4C)
T3 construct: expressed in transfected cells; host or cells: human 293 cells (TRAF lysate); The GST-RANK fusion was purified as previously described
T3 sequence (P70191 whole entry, the tested form may be a part): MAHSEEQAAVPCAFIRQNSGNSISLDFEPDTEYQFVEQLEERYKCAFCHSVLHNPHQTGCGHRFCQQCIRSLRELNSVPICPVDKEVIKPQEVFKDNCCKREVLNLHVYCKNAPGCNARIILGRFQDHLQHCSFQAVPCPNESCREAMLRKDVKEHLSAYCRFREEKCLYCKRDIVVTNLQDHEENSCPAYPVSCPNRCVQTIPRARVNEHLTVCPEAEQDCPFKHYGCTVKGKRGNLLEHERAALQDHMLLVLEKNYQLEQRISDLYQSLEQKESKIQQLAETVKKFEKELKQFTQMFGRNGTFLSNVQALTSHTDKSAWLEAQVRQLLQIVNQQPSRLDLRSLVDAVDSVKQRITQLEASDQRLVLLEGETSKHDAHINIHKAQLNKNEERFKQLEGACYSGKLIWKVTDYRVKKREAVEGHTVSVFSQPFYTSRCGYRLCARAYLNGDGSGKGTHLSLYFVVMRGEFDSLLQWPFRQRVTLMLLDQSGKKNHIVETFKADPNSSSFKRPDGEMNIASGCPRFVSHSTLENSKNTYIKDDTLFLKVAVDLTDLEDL
Method: as §1, §2, §3

## L-T6DP-2: Kaposi fibroblast growth factor signal sequence hydrophobic domain attached to murine RANK peptide containing a similar TRAF6-binding motif (AAVALLPAVLLALLAPFQEPLEVGE)
[1]
  TRAF2 binding to the cytoplasmic domain of RANK: neither L-T6DP-1 nor L-T6DP-2 inhibited
[2]
  TRAF6 interaction with the cytoplasmic domain of RANK: Only L-T6DP-1 inhibited
[3]
  development of TRAP positive osteoclasts: inhibited
RAW264.7 cells
  number of TRAP positive osteoclasts: dose-dependent decrease
[4]
  TRAF5 binding to the cytoplasmic domain of RANK: neither L-T6DP-1 nor L-T6DP-2 inhibited
